According to patent US20230242902A1, “A HIGHLY ERROR-PRONE […] R[…] FOR TARGETED CONTINUOUS EVOLUTION IN VIVO” (The Regents of the University of California, priority 2017, published 2023):

B1: D407M: TP-DNAP1 variant (protein)
chain: MDYKDKALNDLRNVYADFDSLPLDFRQILIKDRATLLQKEDVEKKILERQEDAKKYAEYLKQSEIPERISLPNIKRHKGVSISFEETSEDMVLEPRPFIFDGLNIRCFRRETIFSLKNKILNMVKESSSFKNVSRQSVSFMYFKIFNKGKVIASTKSVNIYEDKIDERLEDLCNNFDDVLKKIIDVTYGYESLFVSETYSYVIFYAKSIYFPQPRCVNNWGNNIPNILTFDSFKLFTANKNNVSCIKQCSRFLWQKDFNTLEEMIEYKNGNICIVTPQLHINDVRDIKSFNDIRLYSESPIKTFSVIDNTITYLFYFKEHLGVIFNITKSRHDRRVTKFSPLSKFSDVKNITVCFDIESYFDPEKESNQVNIPFICCASIIYNKVIGNIVDFEGRDCVAQMIEYVVMICGELNISSVELIAHNGGGYDFHYILSSMYNPAAIKNILIRNNSFISFNFAHDGVKFSVKDSYSFLLCSLANASKAFLNEETFKKTDFPHHDLKTADDLYKVYKEWSSVNTEINHVVEKEKLLITSEHIVNFTKNDKSKTLIEWSKDYCRNDVLVLSKVWLEFKNAVEDIFNCELVDQTMTLAGLSYKLFQANMPFDVELRHPNKEDYFNMREALIGGRCISVNGIYKDVLCLDVKSLYPASMAFYDQPYGSFKRVSSRPKDELGIYYVRVTPNRNNKSNFFPIRSHNKITYNNFEESTYIAWYTNVDIDIGLSEGHNIEYIPFDSYGNIGYSWSKKGKIFEKYIKDVLYKLKIKYEKQNNKVKRNVIKIIMNSLWGKFAQKWVNFEYFIKSEDDIDFESEEAYKIWDTDFMLIKKIKESTYSSKPIQNGVFTLSWARYHMKSIWDAGAKEGAECIYSDTDSIFVHKEHFKKNAKFMLNGLKVPIIGSEVGQLELECEFDKLLCAGKKQYMGFYTYFQDGKPCIKEKKRFKGIPSNYIIPELYAHLLSGADKEAKIQFLKFRREWGSVKGYIENKTVKAT
B2: G410R: TP-DNAP1 variant (protein)
chain: MDYKDKALNDLRNVYADFDSLPLDFRQILIKDRATLLQKEDVEKKILERQEDAKKYAEYLKQSEIPERISLPNIKRHKGVSISFEETSEDMVLEPRPFIFDGLNIRCFRRETIFSLKNKILNMVKESSSFKNVSRQSVSFMYFKIFNKGKVIASTKSVNIYEDKIDERLEDLCNNFDDVLKKIIDVTYGYESLFVSETYSYVIFYAKSIYFPQPRCVNNWGNNIPNILTFDSFKLFTANKNNVSCIKQCSRFLWQKDFNTLEEMIEYKNGNICIVTPQLHINDVRDIKSFNDIRLYSESPIKTFSVIDNTITYLFYFKEHLGVIFNITKSRHDRRVTKFSPLSKFSDVKNITVCFDIESYFDPEKESNQVNIPFICCASIIYNKVIGNIVDFEGRDCVAQMIEYVVDICRELNISSVELIAHNGGGYDFHYILSSMYNPAAIKNILIRNNSFISFNFAHDGVKFSVKDSYSFLLCSLANASKAFLNEETFKKTDFPHHDLKTADDLYKVYKEWSSVNTEINHVVEKEKLLITSEHIVNFTKNDKSKTLIEWSKDYCRNDVLVLSKVWLEFKNAVEDIFNCELVDQTMTLAGLSYKLFQANMPFDVELRHPNKEDYFNMREALIGGRCISVNGIYKDVLCLDVKSLYPASMAFYDQPYGSFKRVSSRPKDELGIYYVRVTPNRNNKSNFFPIRSHNKITYNNFEESTYIAWYTNVDIDIGLSEGHNIEYIPFDSYGNIGYSWSKKGKIFEKYIKDVLYKLKIKYEKQNNKVKRNVIKIIMNSLWGKFAQKWVNFEYFIKSEDDIDFESEEAYKIWDTDFMLIKKIKESTYSSKPIQNGVFTLSWARYHMKSIWDAGAKEGAECIYSDTDSIFVHKEHFKKNAKFMLNGLKVPIIGSEVGQLELECEFDKLLCAGKKQYMGFYTYFQDGKPCIKEKKRFKGIPSNYIIPELYAHLLSGADKEAKIQFLKFRREWGSVKGYIENKTVKAT
B3: D407T: TP-DNAP1 variant (protein)
chain: MDYKDKALNDLRNVYADFDSLPLDFRQILIKDRATLLQKEDVEKKILERQEDAKKYAEYLKQSEIPERISLPNIKRHKGVSISFEETSEDMVLEPRPFIFDGLNIRCFRRETIFSLKNKILNMVKESSSFKNVSRQSVSFMYFKIFNKGKVIASTKSVNIYEDKIDERLEDLCNNFDDVLKKIIDVTYGYESLFVSETYSYVIFYAKSIYFPQPRCVNNWGNNIPNILTFDSFKLFTANKNNVSCIKQCSRFLWQKDFNTLEEMIEYKNGNICIVTPQLHINDVRDIKSFNDIRLYSESPIKTFSVIDNTITYLFYFKEHLGVIFNITKSRHDRRVTKFSPLSKFSDVKNITVCFDIESYFDPEKESNQVNIPFICCASIIYNKVIGNIVDFEGRDCVAQMIEYVVTICGELNISSVELIAHNGGGYDFHYILSSMYNPAAIKNILIRNNSFISFNFAHDGVKFSVKDSYSFLLCSLANASKAFLNEETFKKTDFPHHDLKTADDLYKVYKEWSSVNTEINHVVEKEKLLITSEHIVNFTKNDKSKTLIEWSKDYCRNDVLVLSKVWLEFKNAVEDIFNCELVDQTMTLAGLSYKLFQANMPFDVELRHPNKEDYFNMREALIGGRCISVNGIYKDVLCLDVKSLYPASMAFYDQPYGSFKRVSSRPKDELGIYYVRVTPNRNNKSNFFPIRSHNKITYNNFEESTYIAWYTNVDIDIGLSEGHNIEYIPFDSYGNIGYSWSKKGKIFEKYIKDVLYKLKIKYEKQNNKVKRNVIKIIMNSLWGKFAQKWVNFEYFIKSEDDIDFESEEAYKIWDTDFMLIKKIKESTYSSKPIQNGVFTLSWARYHMKSIWDAGAKEGAECIYSDTDSIFVHKEHFKKNAKFMLNGLKVPIIGSEVGQLELECEFDKLLCAGKKQYMGFYTYFQDGKPCIKEKKRFKGIPSNYIIPELYAHLLSGADKEAKIQFLKFRREWGSVKGYIENKTVKAT
B4: G410E: TP-DNAP1 variant (protein)
chain: MDYKDKALNDLRNVYADFDSLPLDFRQILIKDRATLLQKEDVEKKILERQEDAKKYAEYLKQSEIPERISLPNIKRHKGVSISFEETSEDMVLEPRPFIFDGLNIRCFRRETIFSLKNKILNMVKESSSFKNVSRQSVSFMYFKIFNKGKVIASTKSVNIYEDKIDERLEDLCNNFDDVLKKIIDVTYGYESLFVSETYSYVIFYAKSIYFPQPRCVNNWGNNIPNILTFDSFKLFTANKNNVSCIKQCSRFLWQKDFNTLEEMIEYKNGNICIVTPQLHINDVRDIKSFNDIRLYSESPIKTFSVIDNTITYLFYFKEHLGVIFNITKSRHDRRVTKFSPLSKFSDVKNITVCFDIESYFDPEKESNQVNIPFICCASIIYNKVIGNIVDFEGRDCVAQMIEYVVDICEELNISSVELIAHNGGGYDFHYILSSMYNPAAIKNILIRNNSFISFNFAHDGVKFSVKDSYSFLLCSLANASKAFLNEETFKKTDFPHHDLKTADDLYKVYKEWSSVNTEINHVVEKEKLLITSEHIVNFTKNDKSKTLIEWSKDYCRNDVLVLSKVWLEFKNAVEDIFNCELVDQTMTLAGLSYKLFQANMPFDVELRHPNKEDYFNMREALIGGRCISVNGIYKDVLCLDVKSLYPASMAFYDQPYGSFKRVSSRPKDELGIYYVRVTPNRNNKSNFFPIRSHNKITYNNFEESTYIAWYTNVDIDIGLSEGHNIEYIPFDSYGNIGYSWSKKGKIFEKYIKDVLYKLKIKYEKQNNKVKRNVIKIIMNSLWGKFAQKWVNFEYFIKSEDDIDFESEEAYKIWDTDFMLIKKIKESTYSSKPIQNGVFTLSWARYHMKSIWDAGAKEGAECIYSDTDSIFVHKEHFKKNAKFMLNGLKVPIIGSEVGQLELECEFDKLLCAGKKQYMGFYTYFQDGKPCIKEKKRFKGIPSNYIIPELYAHLLSGADKEAKIQFLKFRREWGSVKGYIENKTVKAT
B5: I287M: TP-DNAP1 variant (protein, listed as Kluyveromyces lactis)
chain: MDYKDKALNDLRNVYADFDSLPLDFRQILIKDRATLLQKEDVEKKILERQEDAKKYAEYLKQSEIPERISLPNIKRHKGVSISFEETSEDMVLEPRPFIFDGLNIRCFRRETIFSLKNKILNMVKESSSFKNVSRQSVSFMYFKIFNKGKVIASTKSVNIYEDKIDERLEDLCNNFDDVLKKIIDVTYGYESLFVSETYSYVIFYAKSIYFPQPRCVNNWGNNIPNILTFDSFKLFTANKNNVSCIKQCSRFLWQKDFNTLEEMIEYKNGNICIVTPQLHINDVRDMKSFNDIRLYSESPIKTFSVIDNTITYLFYFKEHLGVIFNITKSRHDRRVTKFSPLSKFSDVKNITVCFDIESYFDPEKESNQVNIPFICCASIIYNKVIGNIVDFEGRDCVAQMIEYVVDICGELNISSVELIAHNGGGYDFHYILSSMYNPAAIKNILIRNNSFISFNFAHDGVKFSVKDSYSFLLCSLANASKAFLNEETFKKTDFPHHDLKTADDLYKVYKEWSSVNTEINHVVEKEKLLITSEHIVNFTKNDKSKTLIEWSKDYCRNDVLVLSKVWLEFKNAVEDIFNCELVDQTMTLAGLSYKLFQANMPFDVELRHPNKEDYFNMREALIGGRCISVNGIYKDVLCLDVKSLYPASMAFYDQPYGSFKRVSSRPKDELGIYYVRVTPNRNNKSNFFPIRSHNKITYNNFEESTYIAWYTNVDIDIGLSEGHNIEYIPFDSYGNIGYSWSKKGKIFEKYIKDVLYKLKIKYEKQNNKVKRNVIKIIMNSLWGKFAQKWVNFEYFIKSEDDIDFESEEAYKIWDTDFMLIKKIKESTYSSKPIQNGVFTLSWARYHMKSIWDAGAKEGAECIYSDTDSIFVHKEHFKKNAKFMLNGLKVPIIGSEVGQLELECEFDKLLCAGKKQYMGFYTYFQDGKPCIKEKKRFKGIPSNYIIPELYAHLLSGADKEAKIQFLKFRREWGSVKGYIENKTVKAT
B6: D407F: TP-DNAP1 variant (protein)
chain: MDYKDKALNDLRNVYADFDSLPLDFRQILIKDRATLLQKEDVEKKILERQEDAKKYAEYLKQSEIPERISLPNIKRHKGVSISFEETSEDMVLEPRPFIFDGLNIRCFRRETIFSLKNKILNMVKESSSFKNVSRQSVSFMYFKIFNKGKVIASTKSVNIYEDKIDERLEDLCNNFDDVLKKIIDVTYGYESLFVSETYSYVIFYAKSIYFPQPRCVNNWGNNIPNILTFDSFKLFTANKNNVSCIKQCSRFLWQKDFNTLEEMIEYKNGNICIVTPQLHINDVRDIKSFNDIRLYSESPIKTFSVIDNTITYLFYFKEHLGVIFNITKSRHDRRVTKFSPLSKFSDVKNITVCFDIESYFDPEKESNQVNIPFICCASIIYNKVIGNIVDFEGRDCVAQMIEYVVFICGELNISSVELIAHNGGGYDFHYILSSMYNPAAIKNILIRNNSFISFNFAHDGVKFSVKDSYSFLLCSLANASKAFLNEETFKKTDFPHHDLKTADDLYKVYKEWSSVNTEINHVVEKEKLLITSEHIVNFTKNDKSKTLIEWSKDYCRNDVLVLSKVWLEFKNAVEDIFNCELVDQTMTLAGLSYKLFQANMPFDVELRHPNKEDYFNMREALIGGRCISVNGIYKDVLCLDVKSLYPASMAFYDQPYGSFKRVSSRPKDELGIYYVRVTPNRNNKSNFFPIRSHNKITYNNFEESTYIAWYTNVDIDIGLSEGHNIEYIPFDSYGNIGYSWSKKGKIFEKYIKDVLYKLKIKYEKQNNKVKRNVIKIIMNSLWGKFAQKWVNFEYFIKSEDDIDFESEEAYKIWDTDFMLIKKIKESTYSSKPIQNGVFTLSWARYHMKSIWDAGAKEGAECIYSDTDSIFVHKEHFKKNAKFMLNGLKVPIIGSEVGQLELECEFDKLLCAGKKQYMGFYTYFQDGKPCIKEKKRFKGIPSNYIIPELYAHLLSGADKEAKIQFLKFRREWGSVKGYIENKTVKAT

These molecules were tested on p1 (assay: p1 copy number by p1-encoded mKate2 fluorescence). Conditions: OR-Y24, measured in triplicate.
Assay type: cell-based, S. cerevisiae
In short: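 Copy number was inferred from p1-encoded mKate2 fluorescence in saturated OR-Y24 cultures (triplicate), calibrated linearly against qPCR of p1 leu2 relative to genomic LEU3.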

| Molecule | Mean fold-increase over w.t. (p1 copy number) |
| --- | --- |
| B1 | 2.71 fold |
| B2 | 2.87 fold |
| B3 | 3.95 fold |
| B4 | 2.37 fold |
| B5 | 2.39 fold |
| B6 | 2.28 fold |
